Here are results for 1 molecule from publication PMC9563779 (2022).

In this experiment the target is extracellular domain of p95HER2 peptide with a poly-histidine-tag in the C-terminus (human). The experiment in a line: SPR. For orientation: Surface plasmon resonance follows binding to a sensor surface in real time, without labels.

B1: Oslo-2 mAb (antibody, V domains shown)
VH: EVQILETGGGLVKPGGSLRLSCATSGFNFNDYFMNWVRQAPGKGLEWIAQIRNKNYNYATYFAESLEGRFTISRDDSKSSVYLQVNSLRAEDTALYYCTELRYDYWGQGVMVTVSS
VL: DIVMTQSPFSLAVSEGEMVTINCKSSQSLLSSGNQKNNLAWYQQKPGQSPKLLIYYASTRQSGVPDRFIGSGSGTDFTLTISDVQAEDLADYYCLQHYSSPYTFGAGTKLELK
In general, koff refers to a measure of how fast the partners let go of each other. High values mean fast dissociation, low ones slow dissociation. As for B1, the koff turned out to be 0.00893 s⁻¹.
